{
  "source": "the supplement of paper PMC9732359",
  "note": "± gives the uncertainty stated by the source.",
  "data": [
    {"experiment": "protein stability index of a GFP-peptide fusion (yeast GPS) (PSI 1-4); higher = more stable; sorted into four equal gates, so the index is relative within each strain", "conditions": "san1∆", "outline": "(§1)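 Plasmids in a pooled yeast library fused tiled 17-residue yeast protein peptides downstream of GFP and also expressed Cherry. Mid-log cultures grown without leucine were sorted into four equal gates by GFP/Cherry fluorescence ratio. Each gate's plasmids were PCR-amplified and Illumina-sequenced, and reads were matched to strains by barcodes. The protein stability index is derived by multiplying each gate's read frequency by its gate number and summing the results.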", "values": [
      {"sequence": "EEGINKFKKEKFDIIIV [SRP54]", "protein stability index": "2.92 ± 0.043"}
    ]},
    {"experiment": "protein stability index of a GFP-peptide fusion (yeast GPS) (PSI 1-4); higher = more stable; sorted into four equal gates, so the index is relative within each strain", "conditions": "ubr1∆", "outline": "as §1", "values": [
      {"sequence": "DLMDEELRKHAQKRVSN [SKI6]", "protein stability index": "3.21 ± 0.077"},
      {"sequence": "DLSEKILNDIETLEHNP [BRR2]", "protein stability index": "3.13 ± 0.043"},
      {"sequence": "DLSSAASASGAAGAGAA [FAS2]", "protein stability index": "1.66 ± 0.19"},
      {"sequence": "DMFEMSDEEENNNNKSI [SSN2]", "protein stability index": "3.04 ± 0.079"},
      {"sequence": "DMLTWVDSNLPDDEKFT [RPC40]", "protein stability index": "3.26 ± 0.074"},
      {"sequence": "DNEEASVKLDLQDDEDH [BRN1]", "protein stability index": "3.35 ± 0.097"},
      {"sequence": "DNFSPHQNVIIGSNGSG [SMC3]", "protein stability index": "3.28 ± 0.079"},
      {"sequence": "DNGGTILGIAGEDFAVL [PRE7]", "protein stability index": "3.47 ± 0.052"},
      {"sequence": "DNIRYATALQTCAGGRL [SMC2]", "protein stability index": "1.62 ± 0.058"},
      {"sequence": "DNIYRNLQKIDKDSEEL [MED4]", "protein stability index": "3.01 ± 0.054"},
      {"sequence": "DNKEKDFELEISWCSLS [PRE10]", "protein stability index": "3.13 ± 0.088"},
      {"sequence": "DNLLEMSDHSLDKLNCA [RRP6]", "protein stability index": "3.25 ± 0.049"},
      {"sequence": "DNLLLNLEQINEDLEDG [REC8]", "protein stability index": "3.07 ± 0.061"},
      {"sequence": "DNVNSTTGSIFEKDLMA [BRN1]", "protein stability index": "2.99 ± 0.041"},
      {"sequence": "DNVSFIEEAKSIRRQDY [REC8]", "protein stability index": "3.15 ± 0.08"},
      {"sequence": "DPASFYLFDEIDAALDK [SMC3]", "protein stability index": "2.72 ± 0.046"},
      {"sequence": "DPEKDSINATALAFGYV [SIN4]", "protein stability index": "1.82 ± 0.042"},
      {"sequence": "DPLLSLYNFLHKYVLTL [RGR1]", "protein stability index": "2.12 ± 0.046"},
      {"sequence": "DPPNEGDPFDYKAQADT [RPB3]", "protein stability index": "3.12 ± 0.073"},
      {"sequence": "DPQHKAIRRDARYNWIC [RPL15A]", "protein stability index": "3.11 ± 0.16"},
      {"sequence": "DPVLDWRKSDRELTKNI [SIR4]", "protein stability index": "2.26 ± 0.08"},
      {"sequence": "DQFHRDTISAITHQLNN [RPC25]", "protein stability index": "1.67 ± 0.034"},
      {"sequence": "DQFITSLKCTDPYELKG [ITC1]", "protein stability index": "2.95 ± 0.1"},
      {"sequence": "DQKIWPYLEKYPEYDQI [SSN3]", "protein stability index": "3.43 ± 0.1"},
      {"sequence": "DQKPIEHIKEGSEIAIS [SWI3]", "protein stability index": "2.92 ± 0.04"},
      {"sequence": "DQKTGRAKSSSHLFNEY [RPN4]", "protein stability index": "3.46 ± 0.15"},
      {"sequence": "DQNPIQVVVDAITNTGP [RPS5]", "protein stability index": "2.13 ± 0.041"},
      {"sequence": "DQQSPWLLRLELDRAAM [RPO21]", "protein stability index": "2.66 ± 0.1"},
      {"sequence": "DQWLEEYKKHFPPNLEK [UBP6]", "protein stability index": "2.96 ± 0.067"},
      {"sequence": "DRFKYRSVDRAGRKFKS [POP4]", "protein stability index": "3.55 ± 0.16"},
      {"sequence": "DRFPLKLREPVARFLHF [ITC1]", "protein stability index": "1.91 ± 0.046"},
      {"sequence": "DRHIGCAMSGLTADARS [PUP2]", "protein stability index": "2.69 ± 0.07"},
      {"sequence": "DRQLHEISTSKKNNLEF [RPN14]", "protein stability index": "3.17 ± 0.093"},
      {"sequence": "DRRKARKAYFTAPSSER [RPL26B]", "protein stability index": "3.1 ± 0.14"},
      {"sequence": "DRTMLAPMDFAIVVGWR [FAS1]", "protein stability index": "1.77 ± 0.041"},
      {"sequence": "DRTQDRADVEDESNDID [RPC37]", "protein stability index": "3.4 ± 0.073"},
      {"sequence": "DSEGSIKQTSDESTIKR [ECM29]", "protein stability index": "3.41 ± 0.063"},
      {"sequence": "DSFENYFNQLKPYYFSN [RPN12]", "protein stability index": "3.02 ± 0.056"},
      {"sequence": "DSFSVPNRLVKELQYDN [PRE2]", "protein stability index": "3.37 ± 0.29"},
      {"sequence": "DSFTMPNISHSNIDYQT [SNF2]", "protein stability index": "2.41 ± 0.072"},
      {"sequence": "DSLKKLLPQWDDDQIES [ARP9]", "protein stability index": "3.17 ± 0.081"},
      {"sequence": "DSLNDDLNKENKLLRRK [YIL149C/MLP2]", "protein stability index": "3.31 ± 0.065"},
      {"sequence": "DSQIVTPGELVTDDPIW [RRP4]", "protein stability index": "2.94 ± 0.077"},
      {"sequence": "DSRTTTGAYIANRVTDK [PRE3]", "protein stability index": "3.08 ± 0.082"},
      {"sequence": "DSSLQPEYFESPLQSSK [YMR129W/POM152]", "protein stability index": "2.56 ± 0.13"},
      {"sequence": "DSSTTSSNSQQSTPQPD [ITC1]", "protein stability index": "2.95 ± 0.038"},
      {"sequence": "DSTVVYPLPKFPTTSHE [MED8]", "protein stability index": "3.02 ± 0.054"},
      {"sequence": "DSVAAIGIPVNKASLAQ [QCR2]", "protein stability index": "2.82 ± 0.042"},
      {"sequence": "DSYLILDTLPSEFDSRV [RPT5]", "protein stability index": "3.1 ± 0.036"},
      {"sequence": "DTFLPPPPPPPSNFEIN [PRP8]", "protein stability index": "2.33 ± 0.032"},
      {"sequence": "DTLLLLPTDGGLTSRLQ [POP4]", "protein stability index": "3.26 ± 0.13"},
      {"sequence": "DTNAPVAATITSSQKEP [SRB8]", "protein stability index": "2.96 ± 0.11"},
      {"sequence": "DTNNEADLMALENATWT [SNF12]", "protein stability index": "2.94 ± 0.09"},
      {"sequence": "DTQTFSVLLQQLLTPGS [YGL172W/NUP49]", "protein stability index": "1.48 ± 0.058"},
      {"sequence": "DTSAEKDQIQAGKWFDP [SIR4]", "protein stability index": "3.38 ± 0.18"},
      {"sequence": "DTSYKIDGKTVSYKDYS [SMC1]", "protein stability index": "2.95 ± 0.04"},
      {"sequence": "DTVNSALENDVATNIVN [YML103C/NUP188]", "protein stability index": "3.19 ± 0.055"},
      {"sequence": "DTYRTLMEEIESLKKEL [YIL149C/MLP2]", "protein stability index": "3.35 ± 0.068"},
      {"sequence": "DVIAWKNVLANSIWGSS [ITC1]", "protein stability index": "3.28 ± 0.072"},
      {"sequence": "DVKTAEEASQLIEYMEN [NUT1]", "protein stability index": "3.1 ± 0.064"},
      {"sequence": "DVMDELITSSARKELPI [SIR3]", "protein stability index": "2.42 ± 0.18"},
      {"sequence": "DVQVDAEEKREAVIDEK [ITC1]", "protein stability index": "2.6 ± 0.13"},
      {"sequence": "DVRRLKKNVWRSINNLI [BRN1]", "protein stability index": "1.1 ± 0.063"},
      {"sequence": "DVTPADDLKQKKEELVE [RPO31]", "protein stability index": "3.24 ± 0.12"},
      {"sequence": "DWFTYSYFYRRIHVNPS [BRR2]", "protein stability index": "1.52 ± 0.029"},
      {"sequence": "DYMYENGKLTSANERLF [YML031W/NDC1]", "protein stability index": "3.23 ± 0.095"},
      {"sequence": "DYPSTSLDIRHDFIKGL [NUT1]", "protein stability index": "2.56 ± 0.062"},
      {"sequence": "DYRPAEETEAQAEPVEA [RPS3]", "protein stability index": "3.17 ± 0.052"},
      {"sequence": "DYSKPNLPPHYALFLKA [SSN2]", "protein stability index": "1.99 ± 0.056"},
      {"sequence": "DYYYEDAGSNQYYVTQH [SWI1]", "protein stability index": "3.22 ± 0.095"},
      {"sequence": "EAESLLQFHVATYMDND [RPO21]", "protein stability index": "2.94 ± 0.15"},
      {"sequence": "EAINGFKDETISKKIIG [SIR3]", "protein stability index": "3.09 ± 0.063"},
      {"sequence": "EALQYDPQPFLKHVLQL [SNU114]", "protein stability index": "2.65 ± 0.038"},
      {"sequence": "EAMYKLQLASLQQKQRD [SMC3]", "protein stability index": "2.54 ± 0.063"},
      {"sequence": "EAQDEASLQQQQQQDLQ [SNF6]", "protein stability index": "3.2 ± 0.18"},
      {"sequence": "EARFWHLVELLLVFRNA [YDL116W/NUP84]", "protein stability index": "2.02 ± 0.064"},
      {"sequence": "EATSNTNSEDKLSKVQL [MED4]", "protein stability index": "2.93 ± 0.075"},
      {"sequence": "EAVEIPVNSADGKEDVE [SME1]", "protein stability index": "2.67 ± 0.04"},
      {"sequence": "ECGTGTTIHTFNRKENP [RPN14]", "protein stability index": "2.05 ± 0.13"},
      {"sequence": "ECSKDMKEDGLSFVDIV [SIR4]", "protein stability index": "3.03 ± 0.065"},
      {"sequence": "EDDESLGHKELKVRKGH [RPB2]", "protein stability index": "2.97 ± 0.049"},
      {"sequence": "EDDNTPAGHAGNPTNIS [YDL088C/ASM4]", "protein stability index": "3.1 ± 0.046"},
      {"sequence": "EDDSSNSCFSDGSQQNL [REC8]", "protein stability index": "3.32 ± 0.1"},
      {"sequence": "EDDTQIVTGNLVLDLLT [IRR1]", "protein stability index": "2.26 ± 0.037"},
      {"sequence": "EDEDEDLFGDSNKSNST [SSN2]", "protein stability index": "2.18 ± 0.032"},
      {"sequence": "EDEFIVQHDQILVMETS [SWP82]", "protein stability index": "2.98 ± 0.048"},
      {"sequence": "EDFPIDTWANGETIKSN [SEM1]", "protein stability index": "3.15 ± 0.15"},
      {"sequence": "EDILYYSTCPSETDLND [SRB8]", "protein stability index": "1.92 ± 0.1"},
      {"sequence": "EDLFETISQALLNAADR [PUP3]", "protein stability index": "1.92 ± 0.067"},
      {"sequence": "EDPKRRADTMDFKTDVD [YJL039C/NUP192]", "protein stability index": "3.24 ± 0.1"},
      {"sequence": "EDSSILQSIVNEISRNG [PCI8]", "protein stability index": "3.41 ± 0.09"},
      {"sequence": "EDTLSGYDPIVSTRAID [PRP28]", "protein stability index": "3.16 ± 0.093"},
      {"sequence": "EDVALNEQVKKFFLNNV [NAS6]", "protein stability index": "2.88 ± 0.042"},
      {"sequence": "EDVDDEELDITPLFPID [IRR1]", "protein stability index": "2.95 ± 0.075"},
      {"sequence": "EDYPMSSEIKIYYNELQ [SIR4]", "protein stability index": "3.02 ± 0.079"},
      {"sequence": "EEAKEEVTEEQAEATEW [RPS0A]", "protein stability index": "3.64 ± 0.091"},
      {"sequence": "EEASQLIEYMENDAKKS [NUT1]", "protein stability index": "3.04 ± 0.048"},
      {"sequence": "EEDDEGELEQAQAWINL [RPN7]", "protein stability index": "3.26 ± 0.058"},
      {"sequence": "EEDISDLWNNFGNIMDN [RRP6]", "protein stability index": "3.02 ± 0.1"},
      {"sequence": "EEGETSRPLKKVKILEQ [SWI3]", "protein stability index": "3.03 ± 0.053"},
      {"sequence": "EEGINKFKKEKFDIIIV [SRP54]", "protein stability index": "2.69 ± 0.057"}
    ]}
  ]
}
